Test results: IntAct's records for PubMed 18715118

B1: Metallothionein expression activator (Saccharomyces cerevisiae), P21192 (parent)
chain: MDNVVDPWYINPSGFAKDTQDEEYVQHHDNVNPTIPPPDNYILNNENDDGLDNLLGMDYYNIDDLLTQELRDLDIPLVPSPKTGDGSSDKKNIDRTWNLGDENNKVSHYSKKSMSSHKRGLSGTAIFGFLGHNKTLSISSLQQSILNMSKDPQPMELINELGNHNTVKNNNDDFDHIRENDGENSYLSQVLLKQQEELRIALEKQKEVNEKLEKQLRDNQIQQEKLRKVLEEQEEVAQKLVSGATNSNSKPGSPVILKTPAMQNGRMKDNAIIVTTNSANGGYQFPPPTLISPRMSNTSINGSPSRKYHRQRYPNKSPESNGLNLFSSNSGYLRDSELLSFSPQNYNLNLDGLTYNDHNNTSDKNNNDKKNSTGDNIFRLFEKTSPGGLSISPRINGNSLRSPFLVGTDKSRDDRYAAGTFTPRTQLSPIHKKRESVVSTVSTISQLQDDTEPIHMRNTQNPTLRNANALASSSVLPPIPGSSNNTPIKNSLPQKHVFQHTPVKAPPKNGSNLAPLLNAPDLTDHQLEIKTPIRNNSHCEVESYPQVPPVTHDIHKSPTLHSTSPLPDEIIPRTTPMKITKKPTTLPPGTIDQYVKELPDKLFECLYPNCNKVFKRRYNIRSHIQTHLQDRPYSCDFPGCTKAFVRNHDLIRHKISHNAKKYICPCGKRFNREDALMVHRSRMICTGGKKLEHSINKKLTSPKKSLLDSPHDTSPVKETIARDKDGSVLMKMEEQLRDDMRKHGLLDPPPSTAAHEQNSNRTLSNETDAL

Variants of: B1
Details: with xpo1_yeast CRM1, P30822

Row | Variant | effect of a mutation on the interaction
1 | F127V | decreasing interaction

Variants of: B1
Details: with xpo1_yeast CRM1, P30822
Remark: another data set of the same source

Row | Variant | effect of a mutation on the interaction
2 | F127V | disrupting interaction
3 | S122D | decreasing interaction
4 | S137D | decreasing interaction
5 | S122D;S137D | disrupting interaction

Variants of: B1
Details: with cbk1_yeast CBK1, P53894
Sequence of cbk1_yeast CBK1, P53894 (P53894 whole entry): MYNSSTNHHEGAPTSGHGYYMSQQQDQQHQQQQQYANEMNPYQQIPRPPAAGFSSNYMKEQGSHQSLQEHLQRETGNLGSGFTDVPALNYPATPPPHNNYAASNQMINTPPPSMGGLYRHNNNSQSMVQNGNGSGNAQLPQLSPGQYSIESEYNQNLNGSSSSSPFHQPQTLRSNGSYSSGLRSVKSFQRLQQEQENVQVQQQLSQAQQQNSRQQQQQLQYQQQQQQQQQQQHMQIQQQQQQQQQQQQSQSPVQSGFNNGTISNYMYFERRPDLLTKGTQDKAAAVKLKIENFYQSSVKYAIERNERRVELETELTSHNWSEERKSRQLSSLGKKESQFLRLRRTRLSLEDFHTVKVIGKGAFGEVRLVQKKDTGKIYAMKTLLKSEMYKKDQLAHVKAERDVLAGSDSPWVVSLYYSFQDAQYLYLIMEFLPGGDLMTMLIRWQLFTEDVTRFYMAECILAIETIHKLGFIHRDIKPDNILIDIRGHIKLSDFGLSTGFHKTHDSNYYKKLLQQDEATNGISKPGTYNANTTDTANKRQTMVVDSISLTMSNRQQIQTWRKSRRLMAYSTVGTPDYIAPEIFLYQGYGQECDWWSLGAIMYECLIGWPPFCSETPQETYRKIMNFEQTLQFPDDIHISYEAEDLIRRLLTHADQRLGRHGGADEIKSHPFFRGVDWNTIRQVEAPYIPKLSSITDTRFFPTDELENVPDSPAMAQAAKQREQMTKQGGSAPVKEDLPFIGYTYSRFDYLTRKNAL

Row | Variant | effect of a mutation on the interaction
6 | S113A;S122A;S137A | disrupting interaction
7 | S113A;H117A;S137A | disrupting interaction
